We go through four molecules from publication PMC5958137, “Calreticulin and integrin alpha dissociation induces anti-inflammatory programming in animal models of inflammatory bowel disease” (Nature Communications, 2018).

The target of assay [1] is T1, Calreticulin (CRT) (Homo sapiens, UniProt P27797).
T1 sequence (P27797 18-417): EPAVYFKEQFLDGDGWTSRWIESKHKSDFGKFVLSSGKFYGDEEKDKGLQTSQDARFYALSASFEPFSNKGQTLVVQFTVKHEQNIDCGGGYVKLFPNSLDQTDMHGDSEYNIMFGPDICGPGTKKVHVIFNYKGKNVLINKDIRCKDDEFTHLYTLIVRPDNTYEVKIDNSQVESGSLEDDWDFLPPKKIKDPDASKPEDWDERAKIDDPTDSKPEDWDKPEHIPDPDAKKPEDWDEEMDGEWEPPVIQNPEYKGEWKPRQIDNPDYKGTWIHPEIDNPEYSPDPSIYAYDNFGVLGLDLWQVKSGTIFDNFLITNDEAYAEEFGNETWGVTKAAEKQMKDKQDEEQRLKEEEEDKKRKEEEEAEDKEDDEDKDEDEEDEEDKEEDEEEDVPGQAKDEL
Description: 1D 1H NMR ligand line broadening with CRT; […]-HSQC of ITGA4 peptide shows displacement from CRT. Format: binding. Set-up: gene CALR; Human CRT, His-tag fusion protein (pET-19b), expressed in E. coli.

Assay [2] concerns the target T1, Calreticulin (CRT). Put plainly: cell-free plate assay of biotinylated ITGA peptide (KAGFFKR) binding to purified CRT; supported by GST-CRT pull-down. Set-up: gene CALR.
Assay [3] deals with T2, Human CRT protein, His-tag fusion protein (pET-19b) (human, UniProt P27797 18-417).
T2 construct: calreticulin (CRT), human; Surmise: pET-19b adds an N-terminal His tag; also called calreticulin; source: E. coli BL21, purified (Ni-NTA agarose, Superdex 75), >90% pure
T2 sequence (looked up): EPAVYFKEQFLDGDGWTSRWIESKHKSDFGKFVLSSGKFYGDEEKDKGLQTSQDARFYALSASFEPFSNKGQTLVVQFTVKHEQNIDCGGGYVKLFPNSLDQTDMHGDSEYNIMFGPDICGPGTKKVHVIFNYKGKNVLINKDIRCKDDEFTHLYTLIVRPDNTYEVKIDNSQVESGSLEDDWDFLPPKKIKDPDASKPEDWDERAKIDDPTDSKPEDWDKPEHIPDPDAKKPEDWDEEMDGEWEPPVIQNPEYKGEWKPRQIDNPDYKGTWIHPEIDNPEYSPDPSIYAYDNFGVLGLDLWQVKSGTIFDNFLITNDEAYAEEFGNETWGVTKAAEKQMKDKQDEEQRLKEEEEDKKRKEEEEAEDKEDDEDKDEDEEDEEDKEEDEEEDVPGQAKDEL
Put plainly: NMR titration; two-dimensional 15N-HSQC, 4 μM 15N-ITGA4 with 4 μM CRT, 20 mM PB pH 5.5, 10% D2O, 303 K, 700 MHz. The note with it: both partners purified.

Assay [4] has as its target T3, CRT (>90% pure) used for surface plasmon resonance (human, UniProt P27797 18-417).
T3 chain: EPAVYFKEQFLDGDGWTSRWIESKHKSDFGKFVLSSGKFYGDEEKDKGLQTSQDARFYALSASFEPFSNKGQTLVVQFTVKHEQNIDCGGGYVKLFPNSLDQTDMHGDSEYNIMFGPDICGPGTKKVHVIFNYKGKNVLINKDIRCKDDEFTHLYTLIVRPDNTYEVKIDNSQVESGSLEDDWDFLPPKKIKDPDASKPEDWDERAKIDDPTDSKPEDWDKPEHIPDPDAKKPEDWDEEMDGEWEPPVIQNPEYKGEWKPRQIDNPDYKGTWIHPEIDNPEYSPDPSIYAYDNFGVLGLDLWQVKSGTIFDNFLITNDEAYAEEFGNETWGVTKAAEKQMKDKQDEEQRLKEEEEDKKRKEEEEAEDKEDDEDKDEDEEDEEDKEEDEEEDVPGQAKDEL
Description: SPR.

Assay [5] addresses T3, CRT (>90% pure) used for surface …. Description: SPR.

Structures can show the parent of a compound that is named as a salt. Ends that are not written are not given here. * marks the point of attachment. Biotin = O=C1N[C@H]2[C@H](CS[C@H]2CCCCC(=O)*)N1

Regarding `CC1(C)CC(c2ccccc2N2CCN(CC3CC3)CC2)CC(C)(C)C1` [ER-339093-13, 1-(cyclopropylmethyl)-4-[2-(3,3,5,5-tetramethylcyclohexyl)phenyl] piperazine methanesulfonate], the “1D 1H NMR ligand line broadening with CRT; 15N-HSQC of ITGA4 peptide shows displ” value at Calreticulin (CRT) [1] is “notable line broadening of the ER-339093-13 signal was observed upon the addition of CRT”.
Broadly, the IC50 is the concentration needed to halve the response being measured. Molecule `CCCN1CCN(c2ccccc2C2CC(C)(C)CC(C)(C)C2)CC1` [ER-464195-01, 1-propyl-4-[2-(3,3,5,5-tetramethylcyclohexyl)phenyl] piperazine hydrochloride] yielded an IC50 at Calreticulin (CRT) [2] of 170 nM.

B1: uniformly 15N-labeled intracellular domain of ITGA4 (domain or fragment)
chain: KAGFFKRQYKSILQEENRRDSWSYINSKSNDD
modifications: also: uniformly 15N-labeled
notes: intracellular domain of integrin α4 (ITGA4), cloned BamHI-EcoRI into pGEX-2T; Surmise: thrombin cleavage of a pGEX-2T fusion leaves a few residues of the vector at the N-terminus; also called 15N-ITGA4; ITGA4 peptide
For B1, in assay [3], the binding result is given as “binds”.
Usually Kd stands for a measure of binding affinity in units of concentration. A high value points to weaker binding. What is called koff is the rate constant with which the complex falls apart. The molecule Biotin-KAGFFKRQYKSILQEENRRDSWSYINSKSNDD [N-terminally biotinylated intracellular domain of the ITGA4 peptide] showed a Kd in assay [4] of 250 nM. In assay [5], this molecule returned a koff of 0.00388 s⁻¹.
